Data on one molecule can be found in patent US20150005474A1 (GLYCOTOPE, published 2015).

The target of this assay is MUC1 (polymorphic epithelial mucin) on human tumor cells (human, UniProt P15941 24-1255). The assay can be described thus: cell binding test with radiolabelled antibody on K562 cells, Scatchard analysis.
MUC1 (polymorphic epithelial mucin) on human tumor cells, sequence (P15941 24-1097, chain 1 of 2): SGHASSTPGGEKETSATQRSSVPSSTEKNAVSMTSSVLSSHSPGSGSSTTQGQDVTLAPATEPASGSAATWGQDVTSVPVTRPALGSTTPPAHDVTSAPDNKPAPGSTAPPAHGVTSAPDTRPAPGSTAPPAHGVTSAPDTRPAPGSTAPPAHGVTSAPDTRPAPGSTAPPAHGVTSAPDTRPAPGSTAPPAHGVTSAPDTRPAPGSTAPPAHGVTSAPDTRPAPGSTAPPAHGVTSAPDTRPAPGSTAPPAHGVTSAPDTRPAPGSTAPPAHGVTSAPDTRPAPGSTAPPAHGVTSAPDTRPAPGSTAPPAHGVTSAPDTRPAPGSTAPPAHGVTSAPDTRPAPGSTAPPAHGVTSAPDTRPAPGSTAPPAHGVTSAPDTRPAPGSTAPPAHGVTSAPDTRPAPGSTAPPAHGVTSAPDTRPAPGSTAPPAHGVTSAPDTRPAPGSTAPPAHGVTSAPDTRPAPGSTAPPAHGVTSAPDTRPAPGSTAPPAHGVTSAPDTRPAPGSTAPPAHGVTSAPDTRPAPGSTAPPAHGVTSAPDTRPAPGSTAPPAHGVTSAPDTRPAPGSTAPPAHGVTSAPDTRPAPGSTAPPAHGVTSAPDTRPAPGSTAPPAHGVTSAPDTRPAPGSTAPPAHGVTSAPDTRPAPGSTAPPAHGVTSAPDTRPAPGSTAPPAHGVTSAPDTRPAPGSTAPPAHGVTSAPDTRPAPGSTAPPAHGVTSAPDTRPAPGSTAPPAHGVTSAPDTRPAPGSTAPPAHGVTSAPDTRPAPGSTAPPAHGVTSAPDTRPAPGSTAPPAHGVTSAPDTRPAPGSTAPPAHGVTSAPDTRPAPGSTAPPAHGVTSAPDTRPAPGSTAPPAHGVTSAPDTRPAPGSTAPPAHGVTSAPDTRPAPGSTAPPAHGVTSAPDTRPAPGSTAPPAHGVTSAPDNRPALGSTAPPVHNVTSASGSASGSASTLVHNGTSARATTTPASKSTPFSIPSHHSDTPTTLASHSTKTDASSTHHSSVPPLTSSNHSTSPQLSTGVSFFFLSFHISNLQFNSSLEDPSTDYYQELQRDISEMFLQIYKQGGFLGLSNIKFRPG
MUC1 (polymorphic epithelial mucin) on human tumor cells, sequence (P15941 1098-1255, chain 2 of 2): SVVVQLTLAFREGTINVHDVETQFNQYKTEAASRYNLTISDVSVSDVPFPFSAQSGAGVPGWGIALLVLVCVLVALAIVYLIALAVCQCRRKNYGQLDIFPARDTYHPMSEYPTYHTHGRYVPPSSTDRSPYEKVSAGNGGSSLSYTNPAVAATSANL

B1: HMFG-1 (antibody, V domains shown)
VH: QVQLVQSGAEVKKPGASVKVSCKASGYTFSAYWIEWVRQAPGKGLEWVGEILPGSNNSRYNEKFKGRVTVTRDTSTNTAYMELSSLRSEDTAVYYCARSYDFAWFAYWGQGTLVTVSS
VL: DIQMTQSPSSLSASVGDRVTITCKSSQSLLYSSNQKIYLAWYQQKPGKAPKLLIYWASTRESGVPSRFSGSGSGTDFTFTISSLQPEDIATYYCQQYYRYPRTFGQGTKVEIKR
B1 had a Ka of 2.7e+08 M⁻¹.
